Paper PMC6753213

Assays:
[1] = target: AMC011 SOSIP-I53-50A (HIV-1 (AMC011, Clade B)); test: not stated; purified fusion proteins; result shown in Supplementary Fig. 2d, e (not shown)
[2] = target: BG505 SOSIP-I53-50A.1NT1 (HIV-1 (BG505)) (UniProt Q2N0S6); test: negative-stain EM
[3] = target: BG505 SOSIP-I53-50A.1NT1 (HIV-1 (BG505)) (UniProt Q2N0S6); test: SEC; SOSIP fusion protein after PGT145 purification, Superose 6 Increase, Assembly Buffer II (25 mM Tris, 500 mM NaCl, 5% glycerol pH 8.2); trimer and aggregate peaks
[4] = target: ConM SOSIP-I53-50A (HIV-1 (consensus of Group M)); test: not stated; purified fusion proteins; result shown in Supplementary Fig. 2d, e (not shown)
[5] = target: ZM197M SOSIP-I53-50A (HIV-1 (ZM197M, Clade C)); test: as above

Work on AMC011 SOSIP-I53-50A (designed binder) yielded a stoichiometry N [1] of 3.
For “BG505 SOSIP-I53-50A.1NT1 (from UniProt Q2N0S6) (designed binder)”, the stoichiometry N [2] was 3 and the stoichiometry N [3] was 3.
In the case of ConM SOSIP-I53-50A (designed binder), the stoichiometry N [4] is reported as 3.
ZM197M SOSIP-I53-50A (designed binder) showed a stoichiometry N [5] of 3.
